The nature of the data set: soluble on expression in E. coli; label from the status in PepcDB or PDB records.
Consider “MGTLIMENETNLSEVELRKNLIANINDCKTLLQLGEIYYSSGRYYLAANYLSYVMKMTNDAALYEKSNQLLFLAERAIQINNNDKMFSNFEFLDTLIMELLNCLKNHYYYNIDIELFELMHVRPSVDSIVVNTQNEKEEIVKHLQGLEELYFNLNDSFSKELLIKLLTFRLLGNHKVKMPLNTIDYWKQRKSIPNLIHSSETLQTNYHNWTLQLFDLTPLKYNLRLFYVPMGISATFLDKQYEYNKISPVIKVKEGDVVIDAGGCFGDTALYFAHEVGETGHVYTIEFIPSNLEIMSKNINLNEKLQNNITIVKHPLWNVSNTSLYYKDQGAASFVTFSEESGVTDKVSTITIDNLVVEHKLHKLDFIKMDVEGAEMNALKGAIHSITTFRPTLAIAIYHQISDFVNVMRFINDLNLGYQFYLGHYTVNAQETILFAVAREKMEVSDENEE”, for which the “soluble on expression in E. coli” value was “soluble”.
The same measure for “MNFLRKIVKNCKDEEIPKPGTPSAPPDDDDLWMPPPEYVPLTQIKGKENVRNFCINGEIKICSPNGYSFRILRHILKSFDNVYSGNRRLIGVVKVVIGLVLSASPVPEGMNWVYKLRRTLIFQWAESHGPLEGEELEYSQEITWDDEAEFVSLQIRVSAKQCHIQGRLWCINMNSKACQLWADMGLKTQQSQEDENTSLLLE”: “soluble”; for “GSMSFLGFGGGQPQLSSQQKIQAAEAELDLVTDMFNKLVNNCYKKCINTSYSEGELNKNESSCLDRCVAKYFETNVQVGENMQKMGQSFNAAGKF”: “soluble”; for “MSLRIAIQGCSHGSLAQIYDVVNYYSSQTKNPIDLLLLCGDFQALRSKHDYASLAVPAKFKQLGSFHQYYSGERVAPVLTIVIGGNHEASNYMWELYHGGWLAPSIYYLGAAGSVYMNGLRIVGASGIYKGFDYRKGHFEKVPYNDKELRSIYHIREYDVEKLMHLTPSPSTIFLSHDWPTTIAHHGNKNALLKRKPFFRDENTLGSPPLLRLMNHFQPSYWFSAHLHVKFAALYEHQAPSHGPDVDGGAPLPLPAMSTAIAQTGNEGHHHHHH”: “not soluble”.
“MGSDKIHHHHHHMNNIFLILGCAKQRWQDLEIICEYVKKTYSLTTMLMVNKAHKEFYSVCDQVIEVDLSDQNFIALASRLLSEQKVSGGLLFADQALLHGTKLFEQLGIVCDNSELGINSYSKLEFRRQEKRYFSHAAKTHYFVPEFSKVNSLQDVHAFAVKYPDGFILKPISEGGSRGVLKLHAQSDFGAAYKQVECYQADGLMCEQLIPTFREFSFDGVGDISFITEKLVATGAHPVEVGQIVPAELTCDSAEKISAHGRLMNLWVGQQLGAFHNEIAYLESQGSTAAIESNRRSGGMGIWNLAEKVFGENLFHRWVDVAMGQTVEHIPLNATGKAMSCMLGSRENLIDDLTMITAQIQEVLAFELGPDIELFSLRWLHTQPHMLPSIPQSNFDFLAEACIYCAHFDLSNQALYERVQRAWDKCLYIGMKEEKCA”: the “soluble on expression in E. coli” value was “not soluble”.
In the case of “MSLKIILSIFLAFFLSACGVKLSLPKEVDLTQEQMKDLNLTYDWYRSYDNAKLNEFLNFVLLNNSDINIARKTLLSALARADLIDYDLYPTLSGNLGFGADKDLNSGKQSKNFNNSLNLSYELDIYGKLRDSASASEFSAKASAYDLENLKISMINTALNDVFELAYFNDVDKLLRAYLSNLEQMKELYNYKYKLGKIEELDLLNIEQSLLRAKQNLLSNDQNRNLLIKNLQDLLARQEGFAYIEYFKTLSEGHHHHHH” it was “soluble”; in that of “MSSHTATKYDVFLSFRGHDTRHNFISFLYKELVRRSIRTFKDDKELENGQRFSPELKSPIEVSRFAVVVVSENYAASSWCLDELVTIMDFEKKGSITVMPIFYGVEPNHVRWQTGVLAEQFKKHASREDPEKVLKWRQALTNFAQLSGDCSGDDDSKLVDKIANEISNKKTIYATI”, “soluble”.
Turning to “MGSDKIHHHHHHMDNLIITPNYVTEFNCVGPACEDSCCKNWTVYFDKKSYKHTISNPAFADLAKIAFVEIKESKENWASIKLDEQGACPFLTQEELCKIHQVGGEAALSYTCKTYPKKDTLVGKDKYQSLSLSCPEAARLVLFDPNAFQFQSHNGGNKKPAKPSPVWLEKSYQYSLDLLINANLDWELALLAIGLLIKTAEDASQYQIPIEELDKRHDQLKRFAESGLMAQQFEKTPYASQLQANLFVTIHSELCKINPRSGKARFGELNLAIEQACNEDNHYSIDLINQAWNQVAQPALKENPDVFERYILYYLFHNHFPGPVTQTPSQSFILLAIDCFMIRCYLSAMALKNNGINQREIILCFQVYQVIRQHRSSFVARLEELVEECGLNSISAVMTLLKTN”, the “soluble on expression in E. coli” value is “not soluble”.
Turning to “MNELVSIITPCYNSAATIRETIRSVIAQSYVNWELLIIDDCSNDDSVKIIMEFMDTDSRIYYLKTEHPSGGPTLPRNVGIQAAKGRFIAFLDSDDIWLPNKLSTQLPLFINDNVAIVYSDYEKISEEGNRTGRIVKSDPYHHYKSLLCGNELGCLTVVYDTQKIGKRYFKFIGHEDYNLWLDILKEGFIAINTNICLALYRIRKGSVSSNKLRVIKWIWHIYRVEQKKTIWLSLYYSLSDLNKSLFKYLKLEHHHHHH”, the “soluble on expression in E. coli” value is listed as “soluble”.
As to “MGSDKIHHHHHHMVMTVGDSRVGKSTVIKLLLEMYQIQGKRLKVYDHDNRDRFLAYKDLVCIEKIDFFNTRTDRIFNDLIVDSLDIILVDMPGQYLDKICQYIIQSELLGALAEYGWSLTFVQPISHRTDCIDYLSQIVQTATNNANYVVVKNYHFAPEFREYEQTMAKNLLMIGGTEIELTALHRNHYQAMEKAGIPYSQVCQDISMILFLRSYIYQWIKKFHDSVMDNDLAVKYLGLD”, the “soluble on expression in E. coli” value is on record as “not soluble”.
As for “MGSDKIHHHHHHMTEIYEKYAHAAERMLHFVETRTTDQASSTMRVPVADYLDQGRFDLEIDRIFKRLPLMLALTIELPEVNDYKAMDVMGLPVLITRGRDGKARAFLNVCKHRAMHLAKEGKGNCKAFACQYHGWTYANDGKLMGIAEASTFGDVDRSTLNMTELPCDEAAGLIFVILTPGLPINAVEWMGGMYEDFAALKLETWYYHKSKAMKGANWKVAYDGYLEGYHFQAAHTNTVATRSPSNRASYEGFGPHIRLGFPQNTITRLHELPRDEWGRQENKGYDFIRMLFPNMSFFLAPEMGQLAQLFPGPQANQNTTVMNYIFPVKPETEEGLAALDQMCDFFFDVVEEEDYFLGLKVQNGLESGAMTHQTFGRNEPGNQFFHKWVAYYLDESGQTPMPVMKE”, the “soluble on expression in E. coli” value is “not soluble”.
Take “EACGYSDRVLQLTLGNSTITTQEAANSVVAYGRWPEYLRDSEANPVDQPTEPDVAACRFYTLDTVSWTKESRGWWWKLPDALRDMGLFGQNMYYHYLGRSGYTVHVQCNASKFHQGALGVFAVPEMCLAGDSNTTTMHTSYQNANPGEKGGTFTGTFTPDNNQTSPARRFCPVDYLLGNGTLLGNAFVFPHQIINLRTNNCATLVLPYVNSLSIDSMVKHNNWGIAILPLAPLNFASESSPEIPITLTIAPMCCEFNGLRNITLPRLQ”: the “soluble on expression in E. coli” value was “soluble”.
The same measure for “MGSDKIHHHHHHMNYCSIVSSNVVKGKAKELGFHKVGIAAVNESTNAEAERLQAWIKLGYHADMEWMNNPKRSDISLIMPEARSLVCVALNYYTPHQRPDSAEYAKISRYGWGRDYHKVMNRKLKALTTWLQSLDPSIQARYYADTGPVQDKVWAQRAGIGWIAKNGNVITRAYGSWVFLGEVVTNLELEKDSPHTEHCGSCTRCLDACPTGAITQPFVVDANRCIAYHTIENRAAELPEAIASQMQGWVAGCDICQDVCPWNQRFAQTTDVVDFQPYPDNIAPKLIELAQISDEEWDKQFPASALRRIKPEMLRRNARANLDASKRNNDPESNHF”: “not soluble”; for “MCMSATLSRPGCGACCIAPSISSPIPGMPQGKPAGSRCVQLDDDMRCRIFGHPDRPDVCSSLQPSTELCADDREQAMTWLLKLEELTLPARLEHHHHHH”: “not soluble”; for “SMGGFMEDLRKCKIIFIIGGPGSGKGTQCEKLVEKYGFTHLSTGELLREELASESERSKLIRDIMERGDLVPSGIVLELLKEAMVASLGDTRGFLIDGYPREVKQGEEFGRRIGDPQLVICMDCSADTMTNRLLQMSRSSLPVDDTTKTIAKRLEAYYRASIPVIAYYETKTQLHKINAEGTPEDVFLQLCTAIDSIFL”: “soluble”.
On to “MGHHHHHHSHMTLEEFSAGEQKTERMDKVGDALEEVLSKALSQRTITVGVYEAAKLLNVDPDNVVLCLLAADEDDDRDVALQIHFTLIQAFCCENDINILRVSNPGRLAELLLLETDAGPAASEGAEQPPDLHCVLVTNPHSSQWKDPALSQLICFCRESRYMDQWVPVINLPER”, for which the “soluble on expression in E. coli” value is recorded as “not soluble”.
Take “MEQVIAQVIKRQQTEERPPDVLSQQTTKYEKRNSASLRKRKNSSKLYLKTDQNWMALREKLASNSIHDKGKYRQKRESNVTCFKSGVESGIQNSSVRSRETQVTFCDGTVPSQGLELANSKSTAEISSRNEIPRLTKVVALDCEFVGVGKLGKEHSLARVSIVNFKGEVLYDKYVLNDKEPVVDYRTSVSGIRPEHLRSSDAVSFEQAQRDVYSIIRNRILVGHAIHHDMHALLLSHPRKLIRDTSKWRGLRSHHLSRKTPSLRKLAQEILGIRIQDGEHDSVEDARATLMIYKRFAKEWEMELQTKKVKLARKKHR”: the “soluble on expression in E. coli” value was “soluble”.
Turning to “MGSDKIHHHHHHMNEVLDEYRRLLSEVDHWFSRCIARSGEHIRCAEGCSECCRGLFDITLLDAALLKEGFDRLDAFTREQVLVKCRKRLAGLLRLWPEFAHPYMLNYRPEEEWELLMPDDDETPCPLLGADGRCLVYGFRPMTCRLHGLPLVDLTGEVLHDEWCTLNYVGGDPLADAGLRGEFTKIFREEVRLFRHFSERLLGQEFRELDTFIPTALLIDFTRFDWHRFAAGFSVTP”, the “soluble on expression in E. coli” value was “not soluble”.
As to “MAGDPMGQKTQQDIVAGLDEKAKEYTSYKAKAKMTIETGSEPQVYNVEIWHKKPSLYRVYLENPKKDQNQVILRNENGVFVLTPSLNKSFRFQSDWPNNSSQVYLFESLVKDVQNDSDAVFTAKEKKYVFETKTNYQHNKMLPTQEITFNKKDMSPSSVKVMDTDRKVMVKVEFSSFEFNKQFDKESFDEKKNMTLSQMDVATSAKPSDTFAVKTPLELPLGVKLLEEKDISTEDGKRIIMTYGGEKSFTLIQEKAQIAKASSSVTLNGEPVNLGYTIGALSDASLSWTYDGVDYLLSSKDLSKEEMVTVAKSMQGQSSKLEHHHHHH”, the “soluble on expression in E. coli” value was “soluble”.
Turning to “MGSDKIHHHHHHMANTSSDWAGAPQNASADGEFVRDTNYIDDRIVADVPAGSEPIAQEDGTFHWPVEAGRYRLVAARACPWAHRTVITRRLLGLENVISLGLTGPTHDVRSWTFDLDPNHLDPVLQIPRLQDAYFNRFPDYPRGITVPALVEESSKKVVTNDYPSITIDFNLEWKQFHREGAPNLYPAELREEMAPVMKRIFTEVNNGVYRTGFAGSQEAHNEAYKRLWVALDWLEDRLSTRRYLMGDHITEADIRLYPTLVRFDAVYHGHFKCGRNKITEMPNLWGYLRDLFQTPGFGDTTDFTEIKQHYYITHAEINPTRIVPVGPDLSGFATPHGREKLGGSPFAEGVTLPGPIPAGEEVKNPEPFQK”, the “soluble on expression in E. coli” value is “not soluble”.
For “MGSDKIHHHHHHMYRAVIFDFDGTIIDTEQHLFNVINKHLEMHNADPISIDFYRSSIGGAATDLHDHLIKAIGSENKDKLYEEHHLTSTTLPMIDTIKSLMAFLKQRHIPMAIATSSVKAEIMPTFKALGLDDYIEVVVGREDVEQVKPDPELYLSAVQQLNYMPTQCLAIEDSVNGATAAIAAGLDVIVNTNKMTSAQDFSNVDYVAKDIDYDQIVARFFTK”, the “soluble on expression in E. coli” value is recorded as “not soluble”.
In the case of “MTFKSATGSGQQGGSSGTSAGNPDSLKQDKISKSGDSLSVVDTGQGDDTHYANLPPSITPTSDPNALSFTNKNNAQRVQLFLRGLLDSIPVLVNKSGQDDLEHHHHHH”, the “soluble on expression in E. coli” value was “not soluble”.

These data come from the DeepSol protein solubility set.
